Measured values: the supplement of paper PMC10065799, “High-throughput profiling of sequence recognition by tyrosine kinases and SH2 domains using bacterial peptide display” (eLife, 2023)

Key:
[1] = test system: AncSZ; experiment: phosphorylation enrichment, bacterial display (enrichment ratio); higher = better substrate or ligand; peptides without Tyr show the background
[2] = target: EPHB1 (UniProt P54762); experiment: as above
[3] = target: EPHB2 (UniProt P29323); experiment: as above
[4] = target: FGFR1 (UniProt P11362); experiment: as above
[5] = target: FGFR3 (UniProt P22607); experiment: as above
[6] = test system: Fer (mouse); experiment: as above
[7] = target: Fes (UniProt P07332); experiment: as above
[8] = target: Fyn (UniProt P06241); experiment: as above
[9] = target: Hck (UniProt P08631); experiment: as above
[10] = target: Jak2 (UniProt O60674); experiment: as above
[11] = target: MERTK (UniProt Q12866); experiment: as above
[12] = test system: c-Abl (mouse); experiment: as above
[13] = test system: c-Src; experiment: as above
[14] = target: Grb2 SH2 (UniProt P62993); experiment: SH2 binding enrichment of the phosphorylated peptide, bacterial display (enrichment ratio); higher = better substrate or ligand; peptides without Tyr show the background
[15] = target: SHP2-C SH2; experiment: as above
[16] = target: c-Src SH2; experiment: as above
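For SH2 binding enrichment of the phosphorylated peptide, bacterial display in this document: peptide library displayed on the E. coli surface as eCPX fusions, selected cells deep-sequenced, score is each peptide's frequency after selection divided by its frequency in the input.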
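For phosphorylation enrichment, bacterial display in this document: 11-residue human phosphosite peptides and single-mutation variants displayed on the E. coli surface, counted by deep sequencing, each peptide's frequency after selection divided by its frequency in the unselected input library; frequency after pTyr selection over input frequency; kinase dosed for 20-30% of maximal phosphorylation in three min.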

EPHB1, sequence (P54762 whole entry, looked up): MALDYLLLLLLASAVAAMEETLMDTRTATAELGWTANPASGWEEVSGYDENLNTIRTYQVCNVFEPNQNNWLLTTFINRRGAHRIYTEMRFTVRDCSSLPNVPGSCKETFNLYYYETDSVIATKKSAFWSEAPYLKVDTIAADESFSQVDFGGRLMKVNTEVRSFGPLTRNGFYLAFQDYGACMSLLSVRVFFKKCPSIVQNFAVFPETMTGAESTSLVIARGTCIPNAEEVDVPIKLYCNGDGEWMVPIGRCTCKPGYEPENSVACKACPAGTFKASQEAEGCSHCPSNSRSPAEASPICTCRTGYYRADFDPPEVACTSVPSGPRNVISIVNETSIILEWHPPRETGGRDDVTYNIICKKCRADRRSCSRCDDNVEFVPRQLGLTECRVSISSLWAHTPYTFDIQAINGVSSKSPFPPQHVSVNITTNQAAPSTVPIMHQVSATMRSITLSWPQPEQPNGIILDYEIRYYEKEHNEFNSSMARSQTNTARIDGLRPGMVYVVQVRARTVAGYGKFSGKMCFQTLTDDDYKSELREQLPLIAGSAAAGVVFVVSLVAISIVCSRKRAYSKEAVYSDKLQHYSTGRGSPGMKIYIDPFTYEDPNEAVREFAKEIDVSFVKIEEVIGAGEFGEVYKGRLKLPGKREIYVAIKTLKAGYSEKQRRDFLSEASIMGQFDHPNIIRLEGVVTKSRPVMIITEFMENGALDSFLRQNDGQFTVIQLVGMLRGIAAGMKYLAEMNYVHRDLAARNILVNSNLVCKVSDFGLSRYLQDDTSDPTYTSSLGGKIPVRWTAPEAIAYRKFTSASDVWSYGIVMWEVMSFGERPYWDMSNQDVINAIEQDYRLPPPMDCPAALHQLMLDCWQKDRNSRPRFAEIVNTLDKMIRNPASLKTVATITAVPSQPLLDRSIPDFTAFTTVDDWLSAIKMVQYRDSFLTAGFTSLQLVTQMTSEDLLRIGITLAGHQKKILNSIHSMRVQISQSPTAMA
MERTK, sequence (Q12866 whole entry, looked up): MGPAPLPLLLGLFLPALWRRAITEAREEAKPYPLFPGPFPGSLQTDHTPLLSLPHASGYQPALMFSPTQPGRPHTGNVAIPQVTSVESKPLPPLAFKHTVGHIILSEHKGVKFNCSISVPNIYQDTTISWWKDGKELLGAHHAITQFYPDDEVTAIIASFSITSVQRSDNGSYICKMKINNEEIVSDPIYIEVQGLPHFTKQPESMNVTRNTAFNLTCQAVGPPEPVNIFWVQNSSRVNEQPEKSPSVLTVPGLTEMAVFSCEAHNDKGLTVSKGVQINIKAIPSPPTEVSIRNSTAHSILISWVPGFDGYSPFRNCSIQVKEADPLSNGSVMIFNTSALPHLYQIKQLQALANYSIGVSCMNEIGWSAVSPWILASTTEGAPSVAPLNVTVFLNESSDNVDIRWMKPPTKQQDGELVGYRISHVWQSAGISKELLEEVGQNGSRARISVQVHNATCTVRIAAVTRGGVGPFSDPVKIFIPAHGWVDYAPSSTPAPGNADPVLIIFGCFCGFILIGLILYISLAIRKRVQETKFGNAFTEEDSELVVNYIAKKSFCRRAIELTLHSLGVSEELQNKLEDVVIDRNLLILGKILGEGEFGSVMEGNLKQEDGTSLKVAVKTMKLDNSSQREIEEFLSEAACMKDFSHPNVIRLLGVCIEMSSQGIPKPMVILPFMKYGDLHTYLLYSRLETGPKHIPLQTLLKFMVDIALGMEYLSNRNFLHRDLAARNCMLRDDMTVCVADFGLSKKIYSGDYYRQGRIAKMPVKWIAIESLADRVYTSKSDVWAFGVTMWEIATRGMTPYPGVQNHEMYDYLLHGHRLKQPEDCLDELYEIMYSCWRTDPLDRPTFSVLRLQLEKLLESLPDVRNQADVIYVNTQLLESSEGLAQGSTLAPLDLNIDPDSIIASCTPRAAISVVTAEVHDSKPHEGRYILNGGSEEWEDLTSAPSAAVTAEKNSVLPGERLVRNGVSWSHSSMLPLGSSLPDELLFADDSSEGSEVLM
Jak2, sequence (O60674 whole entry, looked up): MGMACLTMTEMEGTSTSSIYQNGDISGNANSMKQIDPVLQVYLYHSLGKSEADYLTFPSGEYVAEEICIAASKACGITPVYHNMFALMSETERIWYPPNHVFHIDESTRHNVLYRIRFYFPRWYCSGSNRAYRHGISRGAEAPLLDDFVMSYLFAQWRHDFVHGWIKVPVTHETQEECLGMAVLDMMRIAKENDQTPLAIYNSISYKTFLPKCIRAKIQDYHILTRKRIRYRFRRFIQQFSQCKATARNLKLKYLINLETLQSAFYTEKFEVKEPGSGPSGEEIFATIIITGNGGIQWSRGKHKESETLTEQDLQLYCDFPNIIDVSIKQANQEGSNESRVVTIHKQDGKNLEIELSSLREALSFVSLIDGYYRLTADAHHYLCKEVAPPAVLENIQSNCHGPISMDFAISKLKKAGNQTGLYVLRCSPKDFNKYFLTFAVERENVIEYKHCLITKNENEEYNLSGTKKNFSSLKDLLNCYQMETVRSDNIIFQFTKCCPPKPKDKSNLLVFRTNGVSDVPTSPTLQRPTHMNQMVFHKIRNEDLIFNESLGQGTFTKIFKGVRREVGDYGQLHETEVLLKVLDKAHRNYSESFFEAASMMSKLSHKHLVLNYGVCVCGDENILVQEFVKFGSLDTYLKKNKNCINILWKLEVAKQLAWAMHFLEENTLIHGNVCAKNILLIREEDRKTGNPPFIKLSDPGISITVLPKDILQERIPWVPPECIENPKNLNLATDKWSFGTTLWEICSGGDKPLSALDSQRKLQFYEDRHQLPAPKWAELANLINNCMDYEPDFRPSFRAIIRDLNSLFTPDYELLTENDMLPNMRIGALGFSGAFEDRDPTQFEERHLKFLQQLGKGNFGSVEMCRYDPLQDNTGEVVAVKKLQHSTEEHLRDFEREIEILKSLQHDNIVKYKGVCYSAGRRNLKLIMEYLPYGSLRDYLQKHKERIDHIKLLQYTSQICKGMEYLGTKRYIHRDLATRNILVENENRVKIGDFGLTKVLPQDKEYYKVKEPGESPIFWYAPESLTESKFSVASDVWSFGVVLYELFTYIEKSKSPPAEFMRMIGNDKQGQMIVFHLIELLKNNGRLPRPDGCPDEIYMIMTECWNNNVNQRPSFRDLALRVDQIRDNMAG
EPHB2, sequence (P29323 whole entry, looked up): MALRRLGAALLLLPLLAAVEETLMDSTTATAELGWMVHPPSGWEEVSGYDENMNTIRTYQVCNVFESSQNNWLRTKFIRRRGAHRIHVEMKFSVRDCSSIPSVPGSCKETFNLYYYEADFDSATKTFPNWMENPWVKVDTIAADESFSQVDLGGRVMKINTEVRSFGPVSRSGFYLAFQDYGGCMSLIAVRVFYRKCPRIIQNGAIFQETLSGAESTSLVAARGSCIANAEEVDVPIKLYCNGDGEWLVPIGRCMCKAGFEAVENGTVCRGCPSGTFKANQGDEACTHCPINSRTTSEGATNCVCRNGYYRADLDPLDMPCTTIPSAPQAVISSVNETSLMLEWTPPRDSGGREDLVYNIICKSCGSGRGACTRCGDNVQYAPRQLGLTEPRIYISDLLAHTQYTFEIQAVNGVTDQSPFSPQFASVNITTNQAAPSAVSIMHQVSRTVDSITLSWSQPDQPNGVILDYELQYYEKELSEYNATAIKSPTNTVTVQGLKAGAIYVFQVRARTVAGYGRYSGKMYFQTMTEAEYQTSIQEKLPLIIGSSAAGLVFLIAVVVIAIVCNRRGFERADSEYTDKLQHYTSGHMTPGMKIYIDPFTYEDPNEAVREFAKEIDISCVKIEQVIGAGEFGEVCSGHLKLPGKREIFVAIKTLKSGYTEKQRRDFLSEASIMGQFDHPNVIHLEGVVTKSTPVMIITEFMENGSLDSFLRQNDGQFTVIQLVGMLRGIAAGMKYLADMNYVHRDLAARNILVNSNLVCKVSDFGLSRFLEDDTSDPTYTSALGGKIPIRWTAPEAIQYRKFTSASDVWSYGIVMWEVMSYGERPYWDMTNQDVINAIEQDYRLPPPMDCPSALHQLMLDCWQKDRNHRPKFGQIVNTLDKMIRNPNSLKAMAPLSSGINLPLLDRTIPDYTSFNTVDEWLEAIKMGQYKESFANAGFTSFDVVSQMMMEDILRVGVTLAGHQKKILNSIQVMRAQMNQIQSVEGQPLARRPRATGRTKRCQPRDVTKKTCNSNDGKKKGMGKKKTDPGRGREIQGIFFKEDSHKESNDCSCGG
Fyn, sequence (P06241 whole entry, looked up): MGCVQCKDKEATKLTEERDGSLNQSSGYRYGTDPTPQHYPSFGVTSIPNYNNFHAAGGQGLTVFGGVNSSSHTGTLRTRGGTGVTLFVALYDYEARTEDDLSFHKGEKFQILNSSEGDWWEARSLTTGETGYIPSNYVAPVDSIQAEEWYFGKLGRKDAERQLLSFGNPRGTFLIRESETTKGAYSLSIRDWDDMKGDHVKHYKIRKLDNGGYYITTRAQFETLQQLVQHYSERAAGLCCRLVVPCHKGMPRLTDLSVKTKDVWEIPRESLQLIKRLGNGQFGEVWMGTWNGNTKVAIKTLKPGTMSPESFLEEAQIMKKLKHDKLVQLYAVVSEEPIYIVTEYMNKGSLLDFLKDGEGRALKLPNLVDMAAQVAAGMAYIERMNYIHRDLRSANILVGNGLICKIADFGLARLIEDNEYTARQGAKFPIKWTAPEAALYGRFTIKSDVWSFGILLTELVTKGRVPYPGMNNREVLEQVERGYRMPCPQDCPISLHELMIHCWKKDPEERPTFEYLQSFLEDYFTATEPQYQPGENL

Sequence	SH2 binding enrichment [14]	SH2 binding enrichment [15]	SH2 binding enrichment [16]	phosphorylation enrichment [1]	phosphorylation enrichment [2]	phosphorylation enrichment [3]	phosphorylation enrichment [4]	phosphorylation enrichment [5]	phosphorylation enrichment [6]	phosphorylation enrichment [7]	phosphorylation enrichment [8]	phosphorylation enrichment [9]	phosphorylation enrichment [10]	phosphorylation enrichment [11]	phosphorylation enrichment [12]	phosphorylation enrichment [13]
DMGAQYAAASR [ARID1B_Y483_P488R]	0.761	0.553	0.612	0.575	0.371	0.375	0.357	0.396	0.393	0.54	0.37	0.402	0.49	0.31	0.644	0.365
FDDDDYDMDFV [BLM_Y296_T298M]	0.795	0.606	0.485	1.29	0.761	0.612	0.55	0.815	0.561	1.23	0.613	0.56	0.945	0.438	0.68	0.57
SISFDYCRVPM [BST2_Y8_T4I_YF]	0.726	0.65	0.39	1.65	2.13	1.36	1.43	1.39	0.533	1.15	0.463	0.546	1.43	0.547	0.785	0.528
LERYIYNREEL [HLA-DPB1_Y59_F64L]	0.914	0.709	0.852	0.713	0.653	0.407	0.41	0.58	0.444	0.944	0.987	1.55	0.731	0.371	0.777	1.93
LEQQKYTVTID [IKBKB_Y199_V203I]	0.826	0.752	0.486	1.27	0.932	0.81	0.75	0.975	0.518	1.57	0.638	0.682	1.02	0.602	0.696	0.569
QLGLQYSQGLV [EIF2B4_Y214_R209Q]	0.644	0.721	0.375	0.995	0.427	0.479	0.478	0.776	0.527	0.835	0.447	0.598	1.75	0.731	0.861	0.629
IGEGTYRQVFK [CDK13_Y716_G717R_YF]	0.732	0.505	0.41	0.693	0.603	0.582	0.488	0.654	0.474	0.973	0.485	0.634	0.715	0.348	0.558	0.386
EEAAGYAQESQ [CAMKV_Y491]	1.05	0.718	0.577	1.22	0.523	0.543	0.545	0.691	0.547	1.39	0.401	0.661	1.2	0.325	0.935	0.604
LVTRSYLLGNS [LMNA_Y646]	0.836	0.633	0.444	1.37	0.931	0.68	0.841	0.939	0.85	1.52	0.823	0.708	1.27	0.794	1.14	0.854
EAIAKYDLKAT [GRB2_Y7_F9L]	0.874	0.741	0.478	0.809	0.489	0.464	0.466	0.634	0.443	0.713	0.408	0.458	0.851	0.412	0.617	0.438
GFPVRYTDVSN [DNMT3B_Y815_H814R]	0.96	1.38	1.24	0.606	0.678	0.441	0.457	0.531	0.398	0.665	0.423	0.451	0.712	0.466	0.529	0.448

The next lines start with results.

SH2 binding enrichment [14]	SH2 binding enrichment [15]	SH2 binding enrichment [16]	Sequence	phosphorylation enrichment [1]	phosphorylation enrichment [2]	phosphorylation enrichment [3]	phosphorylation enrichment [4]	phosphorylation enrichment [5]	phosphorylation enrichment [6]	phosphorylation enrichment [7]	phosphorylation enrichment [8]	phosphorylation enrichment [9]	phosphorylation enrichment [10]	phosphorylation enrichment [11]	phosphorylation enrichment [12]	phosphorylation enrichment [13]
1.23	1.5	1.23	CTTIHYNFKCN [TP53_Y234_M237K_YF]	0.795	0.381	0.392	0.472	0.494	0.386	0.75	0.405	0.476	0.545	0.425	0.51	0.411
0.889	0.707	0.535	ASFPLYEPAKM [MKI67_Y340]	0.789	18.1	21.1	0.426	0.493	16.3	1.52	4.36	8.34	0.484	3.18	0.635	2.97
0.884	1.02	0.68	SAAAIYMVRHP [PMP22_Y117_T118M]	0.756	2.45	1.82	0.425	0.519	0.53	0.77	4.97	7.71	0.587	3.25	1.65	5.44
0.811	0.657	0.841	LGGAMYYLEAE [PKHD1_Y452]	1.42	1.62	1.25	2.22	2.46	0.667	1.61	2.54	1.4	1.42	1.74	1.2	2.14
0.823	0.679	1.3	IQSAKYDMAED [TTC21B_Y1213]	1.21	0.572	0.724	0.611	0.793	0.503	1.21	0.59	0.687	1.2	0.484	0.825	0.513
0.912	0.502	0.604	YDGKEYDPVEA [MAPRE2_Y167]	1.21	0.772	0.637	0.535	0.836	0.621	1.42	0.556	0.567	1.22	0.497	0.935	0.645
